According to the Human Domainome abundance scans (Beltran et al. 2025):
± gives the uncertainty stated by the source.

assay: abundance fitness (aPCA) (normalised: wild type 0, dead -1); higher = more abundant; growth selection in yeast, the domain comes from the species named; settings: Homo sapiens

Row | Substance | abundance fitness
1 | Lipoamide acyltransferase component of branched-chain alpha-keto acid dehydrogenase complex, mitochondrial Q212F, P11182 | -0.392 ± 0.11
2 | Lipoamide acyltransferase component of branched-chain alpha-keto acid dehydrogenase complex, mitochondrial Q212G, P11182 | 0.023 ± 0.034
3 | Lipoamide acyltransferase component of branched-chain alpha-keto acid dehydrogenase complex, mitochondrial Q212H, P11182 | 0.011 ± 0.065
4 | Lipoamide acyltransferase component of branched-chain alpha-keto acid dehydrogenase complex, mitochondrial Q212I, P11182 | -0.255 ± 0.089
5 | Lipoamide acyltransferase component of branched-chain alpha-keto acid dehydrogenase complex, mitochondrial Q212K, P11182 | 0.007 ± 0.061
6 | Lipoamide acyltransferase component of branched-chain alpha-keto acid dehydrogenase complex, mitochondrial Q212L, P11182 | -0.189 ± 0.043
7 | Lipoamide acyltransferase component of branched-chain alpha-keto acid dehydrogenase complex, mitochondrial Q212M, P11182 | -0.108 ± 0.049
8 | Lipoamide acyltransferase component of branched-chain alpha-keto acid dehydrogenase complex, mitochondrial Q212N, P11182 | 0.124 ± 0.14
9 | Lipoamide acyltransferase component of branched-chain alpha-keto acid dehydrogenase complex, mitochondrial Q212P, P11182 | -0.017 ± 0.036
10 | Lipoamide acyltransferase component of branched-chain alpha-keto acid dehydrogenase complex, mitochondrial Q212R, P11182 | 0.085 ± 0.042
11 | Lipoamide acyltransferase component of branched-chain alpha-keto acid dehydrogenase complex, mitochondrial Q212S, P11182 | 0.004 ± 0.04
12 | Lipoamide acyltransferase component of branched-chain alpha-keto acid dehydrogenase complex, mitochondrial Q212T, P11182 | 0.017 ± 0.06
13 | Lipoamide acyltransferase component of branched-chain alpha-keto acid dehydrogenase complex, mitochondrial Q212V, P11182 | -0.075 ± 0.038
14 | Lipoamide acyltransferase component of branched-chain alpha-keto acid dehydrogenase complex, mitochondrial Q212W, P11182 | -0.218 ± 0.046
15 | Lipoamide acyltransferase component of branched-chain alpha-keto acid dehydrogenase complex, mitochondrial Q212Y, P11182 | 0.108 ± 0.44
16 | Lipoamide acyltransferase component of branched-chain alpha-keto acid dehydrogenase complex, mitochondrial R178A, P11182 | -0.028 ± 0.043
17 | Lipoamide acyltransferase component of branched-chain alpha-keto acid dehydrogenase complex, mitochondrial R178C, P11182 | -0.173 ± 0.083
18 | Lipoamide acyltransferase component of branched-chain alpha-keto acid dehydrogenase complex, mitochondrial R178D, P11182 | -0.626 ± 0.076
19 | Lipoamide acyltransferase component of branched-chain alpha-keto acid dehydrogenase complex, mitochondrial R178E, P11182 | -0.022 ± 0.053
20 | Lipoamide acyltransferase component of branched-chain alpha-keto acid dehydrogenase complex, mitochondrial R178F, P11182 | -0.261 ± 0.1
21 | Lipoamide acyltransferase component of branched-chain alpha-keto acid dehydrogenase complex, mitochondrial R178G, P11182 | -0.361 ± 0.046
22 | Lipoamide acyltransferase component of branched-chain alpha-keto acid dehydrogenase complex, mitochondrial R178H, P11182 | -0.1 ± 0.072
23 | Lipoamide acyltransferase component of branched-chain alpha-keto acid dehydrogenase complex, mitochondrial R178I, P11182 | 0.002 ± 0.059
24 | Lipoamide acyltransferase component of branched-chain alpha-keto acid dehydrogenase complex, mitochondrial R178K, P11182 | 0.051 ± 0.058

Row | Substance | abundance fitness
25 | Lipoamide acyltransferase component of branched-chain alpha-keto acid dehydrogenase complex, mitochondrial R178L, P11182 | -0.165 ± 0.038
26 | Lipoamide acyltransferase component of branched-chain alpha-keto acid dehydrogenase complex, mitochondrial R178M, P11182 | -0.035 ± 0.048
27 | Lipoamide acyltransferase component of branched-chain alpha-keto acid dehydrogenase complex, mitochondrial R178N, P11182 | -0.241 ± 0.071
28 | Lipoamide acyltransferase component of branched-chain alpha-keto acid dehydrogenase complex, mitochondrial R178P, P11182 | -1.38 ± 0.33
29 | Lipoamide acyltransferase component of branched-chain alpha-keto acid dehydrogenase complex, mitochondrial R178Q, P11182 | -0.024 ± 0.064
30 | Lipoamide acyltransferase component of branched-chain alpha-keto acid dehydrogenase complex, mitochondrial R178S, P11182 | -0.081 ± 0.057
31 | Lipoamide acyltransferase component of branched-chain alpha-keto acid dehydrogenase complex, mitochondrial R178T, P11182 | -0.114 ± 0.067
32 | Lipoamide acyltransferase component of branched-chain alpha-keto acid dehydrogenase complex, mitochondrial R178W, P11182 | -0.27 ± 0.053
33 | Lipoamide acyltransferase component of branched-chain alpha-keto acid dehydrogenase complex, mitochondrial R179A, P11182 | -0.048 ± 0.042
34 | Lipoamide acyltransferase component of branched-chain alpha-keto acid dehydrogenase complex, mitochondrial R179D, P11182 | -0.228 ± 0.11
35 | Lipoamide acyltransferase component of branched-chain alpha-keto acid dehydrogenase complex, mitochondrial R179E, P11182 | 0.011 ± 0.068
36 | Lipoamide acyltransferase component of branched-chain alpha-keto acid dehydrogenase complex, mitochondrial R179G, P11182 | -0.257 ± 0.038
37 | Lipoamide acyltransferase component of branched-chain alpha-keto acid dehydrogenase complex, mitochondrial R179H, P11182 | -0.368 ± 0.14
38 | Lipoamide acyltransferase component of branched-chain alpha-keto acid dehydrogenase complex, mitochondrial R179I, P11182 | -0.248 ± 0.059
39 | Lipoamide acyltransferase component of branched-chain alpha-keto acid dehydrogenase complex, mitochondrial R179K, P11182 | -0.021 ± 0.052
40 | Lipoamide acyltransferase component of branched-chain alpha-keto acid dehydrogenase complex, mitochondrial R179L, P11182 | -0.083 ± 0.042
41 | Lipoamide acyltransferase component of branched-chain alpha-keto acid dehydrogenase complex, mitochondrial R179M, P11182 | -0.087 ± 0.055
42 | Lipoamide acyltransferase component of branched-chain alpha-keto acid dehydrogenase complex, mitochondrial R179N, P11182 | -0.156 ± 0.079
43 | Lipoamide acyltransferase component of branched-chain alpha-keto acid dehydrogenase complex, mitochondrial R179P, P11182 | -1.11 ± 0.085
44 | Lipoamide acyltransferase component of branched-chain alpha-keto acid dehydrogenase complex, mitochondrial R179Q, P11182 | 0 ± 0.051
45 | Lipoamide acyltransferase component of branched-chain alpha-keto acid dehydrogenase complex, mitochondrial R179S, P11182 | -0.212 ± 0.057
46 | Lipoamide acyltransferase component of branched-chain alpha-keto acid dehydrogenase complex, mitochondrial R179T, P11182 | -0.304 ± 0.091
47 | Lipoamide acyltransferase component of branched-chain alpha-keto acid dehydrogenase complex, mitochondrial R179W, P11182 | -0.28 ± 0.049
48 | Lipoamide acyltransferase component of branched-chain alpha-keto acid dehydrogenase complex, mitochondrial R199A, P11182 | 0.016 ± 0.045
